These results are taken from PMC3814645 (Genes & Development, 2013).

For the assay, the target named is eIF4E (endogenous) (human (endogenous in HCT116), UniProt P06730 1-217). In words: co-IP.
eIF4E (endogenous), sequence (P06730 whole entry): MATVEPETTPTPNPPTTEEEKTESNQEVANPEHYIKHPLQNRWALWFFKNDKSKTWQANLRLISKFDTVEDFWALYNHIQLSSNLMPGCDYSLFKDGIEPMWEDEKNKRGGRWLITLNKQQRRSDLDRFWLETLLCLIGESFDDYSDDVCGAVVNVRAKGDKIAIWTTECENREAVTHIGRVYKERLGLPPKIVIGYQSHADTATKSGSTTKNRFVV

B1: p-RNPC1 (endogenous RNPC1 phosphorylated at Ser195) (natural protein, human (endogenous in HCT116 and RKO), UniProt Q9H0Z9 1-239, looked up)
chain: MLLQPAPCAPSAGFPRPLAAPGAMHGSQKDTTFTKIFVGGLPYHTTDASLRKYFEGFGDIEEAVVITDRQTGKSRGYGFVTMADRAAAERACKDPNPIIDGRKANVNLAYLGAKPRSLQTGFAIGVQQLHPTLIQRTYGLTPHYIYPPAIVQPSVVIPAAPVPSLSSPYIEYTPASPAYAQYPPATYDQYPYAASPATAASFVGYSYPAAVPQALSAAAPAGTTFVQYQAPQLQPDRMQ
modifications: phosphoserine at 195
As for B1, the “ratio of p-RNPC1 versus RNPC1 in anti-eIF4E immunocomplexes” value amounted to 0.12.
